In paper PMC5156906:

B1: NFATc1 PxIxIT peptide 116…124 (peptide)
peptide: ESPRIEITS
B2: NFATc1 LxVP long peptide 383…400 (peptide)
peptide: DDQYLAVPQHPYQWAKPK

Target: Calcineurin A subunit alone, residues 1-348 (human) (UniProt Q08209)
Assay: ITC; NFAT peptides, PALB2 or SYDE2 titrated into calcineurin in the cell; 25 °C; 20 mM Tris pH 7.5, 100 mM NaCl, 1.0 mM CaCl2, 0.5 mM TCEP; one set of sites model with n=1; averages of >=3 experiments (SYDE2: 2)

Kd	Binder
4.1 µM	B1
2.4 µM	B2
